Like-named read-outs stand apart in the source and are kept apart here. Where no end group is shown, it is not given here. [ ]: non-standard residue; d: D form. tBuAla = CC(C)(C)C[C@H](N)C(=O)O; Cit = NC(=O)NCCC[C@H](N)C(=O)O

Holding throughout (assay): cell-based or functional assay
In test [1] the target is T1, NPR-B (natriuretic peptide receptor B), murine, expressed endogenously on NIH3T3 cells (murine, UniProt Q6VVW5 17-1047).
T1 sequence (looked up): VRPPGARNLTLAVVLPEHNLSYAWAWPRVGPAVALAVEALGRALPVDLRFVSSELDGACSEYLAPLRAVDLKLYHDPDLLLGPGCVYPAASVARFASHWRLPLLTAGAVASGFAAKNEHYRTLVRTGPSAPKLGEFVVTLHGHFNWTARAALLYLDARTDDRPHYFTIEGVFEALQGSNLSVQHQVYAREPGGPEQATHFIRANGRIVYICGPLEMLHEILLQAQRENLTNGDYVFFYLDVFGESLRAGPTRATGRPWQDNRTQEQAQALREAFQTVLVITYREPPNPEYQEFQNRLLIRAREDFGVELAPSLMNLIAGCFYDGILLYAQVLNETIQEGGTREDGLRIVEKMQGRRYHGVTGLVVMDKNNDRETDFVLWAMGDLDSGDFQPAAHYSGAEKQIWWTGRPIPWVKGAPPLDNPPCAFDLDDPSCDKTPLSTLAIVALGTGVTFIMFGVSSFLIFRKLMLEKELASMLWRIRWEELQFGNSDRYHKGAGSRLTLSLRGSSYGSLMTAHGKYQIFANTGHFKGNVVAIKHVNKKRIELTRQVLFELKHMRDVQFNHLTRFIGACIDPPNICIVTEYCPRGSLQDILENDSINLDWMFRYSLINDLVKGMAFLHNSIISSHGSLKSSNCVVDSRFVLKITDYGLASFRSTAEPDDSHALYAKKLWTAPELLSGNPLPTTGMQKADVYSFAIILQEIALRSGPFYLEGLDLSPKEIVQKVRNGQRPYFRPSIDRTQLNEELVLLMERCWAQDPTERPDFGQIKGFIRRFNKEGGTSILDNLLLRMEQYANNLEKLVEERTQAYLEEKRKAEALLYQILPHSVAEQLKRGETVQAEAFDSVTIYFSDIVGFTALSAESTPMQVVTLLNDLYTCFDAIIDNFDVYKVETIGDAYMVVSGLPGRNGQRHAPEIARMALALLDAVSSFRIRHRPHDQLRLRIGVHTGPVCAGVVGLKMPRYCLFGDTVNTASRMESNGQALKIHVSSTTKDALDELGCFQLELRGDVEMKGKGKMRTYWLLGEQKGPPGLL

Test [2] has as its target T1, NPR-B (natriuretic peptide receptor B), …. The source holds these as a separate data set.
Test [3] has the same target. This is another data set of the same source.

In the case of GLSRGCFGLRLDRIGSMSGLGC [CNP22, K4R, K10R], in test [1], the “cGMP response rel. to 1 uM CNP22; 10 nM peptide, NIH3T3 cells” value is 12 rel. to 1 uM CNP22 (100) and the “cGMP response rel. to 1 uM CNP22; 1 uM peptide, NIH3T3 cells” value was 80 rel. to 1 uM CNP22 (100). The like results for GLSRGCFGLKLDRIGSVSGLGC [CNP22, K4R, M17V] were, in that order, 10 rel. to 1 uM CNP22 (100) and 65 rel. to 1 uM CNP22 (100).

On to GLSRGCFGLKLDRI[Cit]SMSGLGC (ends and bridges not checked) [CNP22, K4R, G15Cit], for which, in test [1], the “cGMP response rel. to 1 uM CNP22; 10 nM peptide, NIH3T3 cells” value is 1.4 rel. to 1 uM CNP22 (100) and the “cGMP response rel. to 1 uM CNP22; 1 uM peptide, NIH3T3 cells” value was 2 rel. to 1 uM CNP22 (100). For the molecule GLSRSCFGLKLDRIGSMSGLGC [CNP22, K4R, G5S], the “cGMP response rel. to 1 uM CNP22; 10 nM peptide, NIH3T3 cells” value in test [1] was 45 rel. to 1 uM CNP22 (100). As to {PEG 2 kDa}-GLSKGCFGLKLDRIGSMSGLGC (ends and bridges not checked) [PEG2K-CNP22], in test [2], the “cGMP response rel. to 1 uM CNP22; 10 nM peptide, NIH3T3 cells” value is 6 rel. to 1 uM CNP22 (100) and the “cGMP response rel. to 1 uM CNP22; 1 uM peptide, NIH3T3 cells” value was 32 rel. to 1 uM CNP22 (100).

With GLSRGCFGLKLDRIGSMSGLSC [CNP22, K4R, G21S], in test [1], the “cGMP response rel. to 1 uM CNP22; 10 nM peptide, NIH3T3 cells” value was 7 rel. to 1 uM CNP22 (100) and the “cGMP response rel. to 1 uM CNP22; 1 uM peptide, NIH3T3 cells” value was 39 rel. to 1 uM CNP22 (100). On the same counts, the results for GLSRGCFGLSLDRIGSMSGLGC [CNP22, K4R, K10S] are 16 rel. to 1 uM CNP22 (100) and 53 rel. to 1 uM CNP22 (100). In the case of GLSRGCFGLQLDRIGSMSGLGC [CNP22, K4R, K10Q], in test [1], the “cGMP response rel. to 1 uM CNP22; 10 nM peptide, NIH3T3 cells” value was 9 rel. to 1 uM CNP22 (100) and the “cGMP response rel. to 1 uM CNP22; 1 uM peptide, NIH3T3 cells” value is 45 rel. to 1 uM CNP22 (100). The like results for GLSRGCFGL[Cit]LDRIGSMSGLGC (ends and bridges not checked) [CNP22, K4R, K10Cit] were, in that order, 6 rel. to 1 uM CNP22 (100) and 33 rel. to 1 uM CNP22 (100). As to GLSRGCYGLKLDRIGSMSGLGC (ends and bridges not checked; cysteine pairing not given here) [CNP22, K4R, F7Y], in test [1], the “cGMP response rel. to 1 uM CNP22; 10 nM peptide, NIH3T3 cells” value is 2 rel. to 1 uM CNP22 (100) and the “cGMP response rel. to 1 uM CNP22; 1 uM peptide, NIH3T3 cells” value was 18 rel. to 1 uM CNP22 (100). {PEG 5 kDa}-GLSKGCFGLKLDRIGSMSGLGC (ends and bridges not checked; also: PEG polydispersed) [PEG5K-CNP22]: in test [2], the “cGMP response rel. to 1 uM CNP22; 10 nM peptide, NIH3T3 cells” value was 8 rel. to 1 uM CNP22 (100) and the “cGMP response rel. to 1 uM CNP22; 1 uM peptide, NIH3T3 cells” value was 20 rel. to 1 uM CNP22 (100). As for ELSEGCFGLKLDRIGSMSGLGC [CNP22, G1E, K4E], in test [1], the “cGMP response rel. to 1 uM CNP22; 10 nM peptide, NIH3T3 cells” value is 11 rel. to 1 uM CNP22 (100) and the “cGMP response rel. to 1 uM CNP22; 1 uM peptide, NIH3T3 cells” value was 54 rel. to 1 uM CNP22 (100).

As to GLSRGCFGLKLDRIGSMSSLGC [CNP22, K4R, G19S], in test [1], the “cGMP response rel. to 1 uM CNP22; 10 nM peptide, NIH3T3 cells” value is 21 rel. to 1 uM CNP22 (100) and the “cGMP response rel. to 1 uM CNP22; 1 uM peptide, NIH3T3 cells” value was 63 rel. to 1 uM CNP22 (100).

In the case of GLSRGCFGLKLDRIGQMSGLGC [CNP22, K4R, S16Q], in test [1], the “cGMP response rel. to 1 uM CNP22; 10 nM peptide, NIH3T3 cells” value is 42 rel. to 1 uM CNP22 (100) and the “cGMP response rel. to 1 uM CNP22; 1 uM peptide, NIH3T3 cells” value is 116 rel. to 1 uM CNP22 (100). Consider GLSRGCFGLKLDRIGSMSGVGC [CNP22, K4R, L20V], for which, in test [1], the “cGMP response rel. to 1 uM CNP22; 10 nM peptide, NIH3T3 cells” value was 0.2 rel. to 1 uM CNP22 (100) and the “cGMP response rel. to 1 uM CNP22; 1 uM peptide, NIH3T3 cells” value was 8 rel. to 1 uM CNP22 (100). The like results for GLSRGCFVLKLDRIGSMSGLGC [CNP22, K4R, G8V] were, in that order, 3 rel. to 1 uM CNP22 (100) and 25 rel. to 1 uM CNP22 (100). The like results for GLSRRCFGLKLDRIGSMSGLGC [CNP22, K4R, G5R] were, in that order, 18 rel. to 1 uM CNP22 (100) and 80 rel. to 1 uM CNP22 (100). On the same counts, the results for GLSRGCFGLKLDRISSMSGLGC [CNP22, K4R, G15S] are 13 rel. to 1 uM CNP22 (100) and 71 rel. to 1 uM CNP22 (100). GLSRGCFGLKLDRIGSMSGLRC [CNP22, K4R, G21R]: in test [1], the “cGMP response rel. to 1 uM CNP22; 10 nM peptide, NIH3T3 cells” value was 20 rel. to 1 uM CNP22 (100) and the “cGMP response rel. to 1 uM CNP22; 1 uM peptide, NIH3T3 cells” value was 21 rel. to 1 uM CNP22 (100). The like results for GLSRGCFGLKLDRIGSMSGLTC [CNP22, K4R, G21T] were, in that order, 6 rel. to 1 uM CNP22 (100) and 21 rel. to 1 uM CNP22 (100).

GLSRGCFSLKLDRIGSMSGLGC [CNP22, K4R, G8S]: in test [1], the “cGMP response rel. to 1 uM CNP22; 10 nM peptide, NIH3T3 cells” value is 26 rel. to 1 uM CNP22 (100) and the “cGMP response rel. to 1 uM CNP22; 1 uM peptide, NIH3T3 cells” value is 86 rel. to 1 uM CNP22 (100). The like results for GLSRGCFGLKLDRINSMSGLGC [CNP22, K4R, G15N] were, in that order, 4 rel. to 1 uM CNP22 (100) and 41 rel. to 1 uM CNP22 (100).

B1: CNP53 (peptide)
peptide: DLRVDTKSRAAWARLLQEHPNARKYKGANKKGLSKGCFGLKLDRIGSMSGLGC
For B1, in test [3], the “cGMP response rel. to 1 uM CNP22; 10 nM peptide, NIH3T3 cells” value was 61 rel. to 1 uM CNP22 (100) and the “cGMP response rel. to 1 uM CNP22; 1 uM peptide, NIH3T3 cells” value was 101 rel. to 1 uM CNP22 (100). On to GLSRGCFGLKLDRIRSMSGLGC [CNP22, K4R, G15R], for which, in test [1], the “cGMP response rel. to 1 uM CNP22; 10 nM peptide, NIH3T3 cells” value was 0.3 rel. to 1 uM CNP22 (100) and the “cGMP response rel. to 1 uM CNP22; 1 uM peptide, NIH3T3 cells” value is 0.3 rel. to 1 uM CNP22 (100). As for GLSRGCFGLKLDRIGSMSGLGC [CNP22, K4R], in test [1], the “cGMP response rel. to 1 uM CNP22; 10 nM peptide, NIH3T3 cells” value is 59 rel. to 1 uM CNP22 (100) and the “cGMP response rel. to 1 uM CNP22; 1 uM peptide, NIH3T3 cells” value was 121 rel. to 1 uM CNP22 (100). The like results for GLSRGCFTLKLDRIGSMSGLGC [CNP22, K4R, G8T] were, in that order, 11 rel. to 1 uM CNP22 (100) and 66 rel. to 1 uM CNP22 (100). On the same counts, the results for GLSRGCFGLKLDRIGSMSRLGC [CNP22, K4R, G19R] are 22 rel. to 1 uM CNP22 (100) and 84 rel. to 1 uM CNP22 (100). On to {PEG 20 kDa}-GLSKGCFGLKLDRIGSMSGLGC (ends and bridges not checked) [PEG20K-CNP22], for which, in test [2], the “cGMP response rel. to 1 uM CNP22; 10 nM peptide, NIH3T3 cells” value is 0 rel. to 1 uM CNP22 (100) and the “cGMP response rel. to 1 uM CNP22; 1 uM peptide, NIH3T3 cells” value is 15 rel. to 1 uM CNP22 (100). GLSRGCFGLKLDRIGSMSG[tBuAla]GC (ends and bridges not checked) [CNP22, K4R, L20t-butyl-Ala]: in test [1], the “cGMP response rel. to 1 uM CNP22; 10 nM peptide, NIH3T3 cells” value is 1 rel. to 1 uM CNP22 (100) and the “cGMP response rel. to 1 uM CNP22; 1 uM peptide, NIH3T3 cells” value was 21 rel. to 1 uM CNP22 (100). On the same counts, the results for GLSRGCFGTKLDRIGSMSGLGC [CNP22, K4R, L9T] are 4 rel. to 1 uM CNP22 (100) and 68 rel. to 1 uM CNP22 (100). On the same counts, the results for GLSRGCFGLKLDRIGSMSGRGC [CNP22, K4R, L20R] are 11 rel. to 1 uM CNP22 (100) and 8 rel. to 1 uM CNP22 (100). Turning to GLSRGCFGLKLDRIGSNSGLGC [CNP22, K4R, M17N], in test [1], the “cGMP response rel. to 1 uM CNP22; 10 nM peptide, NIH3T3 cells” value was 40 rel. to 1 uM CNP22 (100) and the “cGMP response rel. to 1 uM CNP22; 1 uM peptide, NIH3T3 cells” value was 103 rel. to 1 uM CNP22 (100).

These data come from USRE48267E1, “Variants of C-type natriuretic peptide” (priority 2009, dated 2020).
